Amyloid nucleation score data for 132 substances are collected here from the supplement of paper PMC12042874.

± gives the uncertainty stated by the source.

The data set is described as follows: amyloid nucleation score (Sup35N fusion, yeast selection) (log enrichment); library NNK3; higher = more nucleation; inactive = no reads after selection. Summed up: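 The nucleation score is a DiMSum log enrichment of output over input reads, centred on the mode score of non-aggregating sequences. Sequences under 100 input reads were excluded, and reads came from Illumina sequencing of plasmid inserts. Psi-negative yeast expressing Sup35N fused to peptides of 20 random codons were induced with 100 μM copper sulfate for 24 hours and grown 7 days at 30°C on medium lacking adenine and uracil. Random libraries had three technical output replicates.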

As for RFVGSGCSGWCSRARDLWWL, the amyloid nucleation score result is “inactive”.

Regarding ALLKD, the amyloid nucleation score entry was “inactive”.

On to KQVTVNTLMSPPVRYL, for which the amyloid nucleation score entry was “inactive”.

For MTFIRPKLGKKPGMYGTNIV, the amyloid nucleation score entry was “inactive”.

For KYFPVAQYGRIWVRRPRGQV, the amyloid nucleation score entry is “inactive”.

Take YCMYMCFSVMAGGGIVTMLW: the amyloid nucleation score result was “inactive”.

QPMKLRT: the amyloid nucleation score result was “inactive”.

As for SLMDVN, the amyloid nucleation score result was “inactive”.

Turning to NRNYVGPWTLKMGLVC, the amyloid nucleation score result is “inactive”.

For the substance TAMYVMSFCW, the amyloid nucleation score entry is “inactive”.

Consider LSLLFALLAFEGVRASLSWG, for which the amyloid nucleation score entry is “inactive”.

With YTIMRNYGFLGARISRGSGS, the amyloid nucleation score result is “inactive”.

As for MSVQHER, the amyloid nucleation score entry is “inactive”.

As for NWNIGPRKLCKWRCR, the amyloid nucleation score result was “inactive”.

Turning to ASQSSVLPWNS, the amyloid nucleation score result is “inactive”.

On to SLGSMAAVLSPSTAERPANL, for which the amyloid nucleation score result is “inactive”.

On to GVAELMGVWDVKLVVPLEES, for which the amyloid nucleation score result was “inactive”.

Consider YFSKVIVDLKNSCIL, for which the amyloid nucleation score entry was “inactive”.

Take LDILTDAFQLLCNKKHNNKP: the amyloid nucleation score result is “inactive”.

QVFLRMKRRICVPLFYLACN showed an amyloid nucleation score of 0.422 ± 0.21.

Turning to FVFIQSHYQNMRFGKF, the amyloid nucleation score entry is “inactive”.

For YFGFIVKISYTVLFGLGSKC, the amyloid nucleation score entry was “inactive”.

Consider LALLTAADARD, for which the amyloid nucleation score entry was “inactive”.

Consider GYFARLR, for which the amyloid nucleation score result was “inactive”.

For the substance YSRTDSQGMTNEMVNLGVDV, the amyloid nucleation score entry is “inactive”.

With SRNMLH, the amyloid nucleation score entry was “inactive”.

Regarding FDGFGMDNIWKTFRNPHLMG, the amyloid nucleation score entry was “inactive”.

In the case of CLSGRCRASMLPLGRVSKCD, the amyloid nucleation score entry is “inactive”.

For MVVGCCSEGV, the amyloid nucleation score result is “inactive”.

In the case of PIAHFM, the amyloid nucleation score result was “inactive”.

As to YSVAHQIPDDDRQGE, the amyloid nucleation score result is “inactive”.

Turning to FPPCTLSKLGSGYHLSNESS, the amyloid nucleation score result was “inactive”.

TDFPYK: the amyloid nucleation score was -0.12 ± 0.53.

Turning to QLCPHYFCKNKNATYGLTSR, the amyloid nucleation score entry was “inactive”.

In the case of WLVYVVLRM, the amyloid nucleation score result was “inactive”.

YSEKDLIHRRIFVVNGRS had an amyloid nucleation score of 1.13 ± 0.12.

In the case of WEGYT, the amyloid nucleation score result was “inactive”.

The substance VACRFHMCLWLGRVLDYAKN showed an amyloid nucleation score of 1.1 ± 0.14.

Consider ADPDVR, for which the amyloid nucleation score entry was “inactive”.

Turning to HLLYYVCRHQQFLWMDVQVE, the amyloid nucleation score result was “inactive”.

For WSPKTLLM, the amyloid nucleation score result was “inactive”.

For the substance HASSWFYWRIFASGLNSDR, the amyloid nucleation score entry is “inactive”.

For TSTNNSRKYSSQRRWMHPLG, the amyloid nucleation score entry was “inactive”.

Consider PYVECSWEAQG, for which the amyloid nucleation score result was “inactive”.

LYCCTGEHGSLASVCSSTLT had an amyloid nucleation score of -0.852 ± 1.5.

RGYSFCRPSHWWKARCVEGE: the amyloid nucleation score entry is “inactive”.

Take YDWSVPAKSS: the amyloid nucleation score result is “inactive”.

With CIHSRTNNIRMTNCVRLGLG, the amyloid nucleation score result was “inactive”.

On to VRRHAF, for which the amyloid nucleation score result is “inactive”.

With RVSWGARVHIWCSLDLVCRF, the amyloid nucleation score result was “inactive”.

Substance ISVVFSGKNSLKEMRMKMAG yielded an amyloid nucleation score of 0.469 ± 0.21.

Turning to LKCDLMWLMLDNYTAVDSFR, the amyloid nucleation score entry is “inactive”.

CAWVDRYYKKVIGANRGSLS: the amyloid nucleation score result was “inactive”.

ITFNRSSSKNCSQKVKGRTL: the amyloid nucleation score result is “inactive”.

The substance IFCVGVSLRQ returned an amyloid nucleation score of 0.347 ± 0.3.

The substance FNSILIVSLHLFSGFDSMR yielded an amyloid nucleation score of 1.86 ± 0.093.

For FPSIYLMSD, the amyloid nucleation score result is “inactive”.

DFCMWSYRHRDLCNSVFISS: the amyloid nucleation score entry is “inactive”.

With LYSECNDPNKA, the amyloid nucleation score entry is “inactive”.

Take YCGYNR: the amyloid nucleation score result was “inactive”.

On to RVRQTFCIW, for which the amyloid nucleation score turned out to be 1.75 ± 0.11.

Turning to SFIVETVDQDVLG, the amyloid nucleation score entry is “inactive”.

Turning to IPLYHSWSVASLRLRNVVSW, the amyloid nucleation score entry was “inactive”.

For the substance YNLRYLVYYLDLLSPVNQMG, the amyloid nucleation score entry is “inactive”.

Consider GACTHGRSSCDKIYLRYSYG, for which the amyloid nucleation score entry was “inactive”.

In the case of LVLWMVDTSFAGSVDVSEMA, the amyloid nucleation score entry is “inactive”.

As to IATIVCYRLDGYHVLSYAHT, the amyloid nucleation score result is “inactive”.

For KRWTQINYFDWRLLRFATRS, the amyloid nucleation score result is “inactive”.

Take YLDRKVCSGNALRYLK: the amyloid nucleation score entry was “inactive”.

Take YIGTYLLMSYGDSRPRKEMR: the amyloid nucleation score amounted to 1.47 ± 0.088.

Regarding MAQIRATIFMMMSANVDRYM, the amyloid nucleation score entry was “inactive”.

On to TAESKRH, for which the amyloid nucleation score result was “inactive”.

Take IYLASSLNRILISEQSILPG: the amyloid nucleation score entry was “inactive”.

CVGQAPGVSLGFQTYQLILW: the amyloid nucleation score result is “inactive”.

With RLQMGVLDLFYFD, the amyloid nucleation score result is “inactive”.

On to KTWYWVFMLAVFRFIYLNMR, for which the amyloid nucleation score entry is “inactive”.

Turning to LWIIKGYKSYSNHQWNWGM, the amyloid nucleation score entry is “inactive”.

SLCLVSLLCFSFRCNDGKWR yielded an amyloid nucleation score of 1.38 ± 0.084.

As to HYADRTAWPSACASLYSHAL, the amyloid nucleation score result is “inactive”.

On to SEHMNGWHHNLTQCEENFRN, for which the amyloid nucleation score entry was “inactive”.

Consider TVHTNLCAMLMFTGYF, for which the amyloid nucleation score entry was “inactive”.

Consider WGLGAINIDMRRRLDPRCKR, for which the amyloid nucleation score was determined as 0.312 ± 0.32.

For GCRGVTVHSADCCDLSIYLC, the amyloid nucleation score stood at 2.31 ± 0.082.

As for MRLYLFSRYPLARTTFMSTC, the amyloid nucleation score entry is “inactive”.

On to LKKVLPYGVRWTDITGPWVS, for which the amyloid nucleation score entry was “inactive”.

DYIEGLECVFRDPARIFLWG gave an amyloid nucleation score of -0.226 ± 1.1.

For TLVVMEIIQLLSFSHGPFI, the amyloid nucleation score result is “inactive”.

Regarding SKVMVHVIWEIVILFMKSKI, the amyloid nucleation score result is “inactive”.

In the case of KASLPNR, the amyloid nucleation score entry is “inactive”.

Turning to VFISRKCWRNHNF, the amyloid nucleation score entry was “inactive”.

RSSFVWTSRHFVV: the amyloid nucleation score result was “inactive”.

For IFSMMLF, the amyloid nucleation score entry is “inactive”.

As to VGLALRLCLAVLSDRKWILS, the amyloid nucleation score entry is “inactive”.

As to FVHHYIWRVNL, the amyloid nucleation score is 0.712 ± 0.36.

For STYVCDGIDG, the amyloid nucleation score entry is “inactive”.

For the substance FSLSCPLSDPNVACTY, the amyloid nucleation score entry is “inactive”.

As to HMNGEDESDNGYIHFLRRER, the amyloid nucleation score entry is “inactive”.

For the substance KKQGSWRKNITISRVCVVLG, the amyloid nucleation score entry is “inactive”.

PFFDFSDINITEPE: the amyloid nucleation score was -0.306 ± 0.71.

With PALMDLGYRYVSRNFDL, the amyloid nucleation score entry was “inactive”.

Regarding YEYWYFCRDDNNFVYLIR, the amyloid nucleation score result was “inactive”.

In turn, DFNLFKAQIYLWNSFDVSEF registered an amyloid nucleation score of 0.99 ± 0.14.

In the case of HDSQMWYLSIIESYLVQYLM, the amyloid nucleation score result was “inactive”.

For the substance IDIVNL, the amyloid nucleation score result is “inactive”.

For the substance LNELHMFSGPAYLFSVFRDM, the amyloid nucleation score entry was “inactive”.

ILVYLASLVTNFNYVHIPLG gave an amyloid nucleation score of 0.969 ± 0.18.

For SGSLGFYTP, the amyloid nucleation score entry is “inactive”.

On to TFVNLFIVPGKGQSVTGGCE, for which the amyloid nucleation score stood at 1.45 ± 0.13.

Regarding DPTIVIGDQPIRLRPSVCQM, the amyloid nucleation score result is “inactive”.

The substance RVYVAWTTCSADKKNSNIMQ showed an amyloid nucleation score of 0.939 ± 0.12.

As to HIVIISYFRLLWSCIAPHGA, the amyloid nucleation score result was “inactive”.

Regarding RMSLRAELVKVNLEAIPNWT, the amyloid nucleation score entry is “inactive”.

Consider RTKKY, for which the amyloid nucleation score entry is “inactive”.

With HMLYLNLFGIIGIIFCDWNM, the amyloid nucleation score entry was “inactive”.

As for SRIFSGISPDVTDPS, the amyloid nucleation score result is “inactive”.

In the case of RELTRRTYAVANYRLSMSRL, the amyloid nucleation score result is “inactive”.

Consider MDEVWFPSKGCDLAVRNCLM, for which the amyloid nucleation score result was “inactive”.

Consider PGRMRVVTVMKMWLTALSLK, for which the amyloid nucleation score result was “inactive”.

On to LKMSLPYNMMVIILKRGGAY, for which the amyloid nucleation score entry was “inactive”.

Take SNFLLSSLIHLVPMMSL: the amyloid nucleation score result was “inactive”.

RTDYVISNVAMCNSLLC: the amyloid nucleation score stood at 2.8 ± 0.082.

For the substance GEIRSKTTVLP, the amyloid nucleation score result was “inactive”.

With YGSMMHWKSLCLSSIC, the amyloid nucleation score result was “inactive”.

EYRGKIDVYYLIGQNYSVSC returned an amyloid nucleation score of 0.621 ± 0.27.

With VIMRMFSFARLFVGSYPFRV, the amyloid nucleation score entry was “inactive”.

Turning to RRKLTAMVNTGEWMSQDDGS, the amyloid nucleation score result was “inactive”.

Substance DRYFLVDAKMFTGRTYLILG registered an amyloid nucleation score of -0.416 ± 0.88.

Consider MGSGIFCDLFHGVMYCMQVR, for which the amyloid nucleation score entry is “inactive”.

For the substance VWILCNRPKRRMIYLTQCRM, the amyloid nucleation score result was “inactive”.

Regarding ANIGKIVKEHRQQSIQHCID, the amyloid nucleation score result is “inactive”.

Substance AYIFIWWKGANKFVSFNKII yielded an amyloid nucleation score of 0.684 ± 0.27.

For the substance WGFVW, the amyloid nucleation score entry was “inactive”.
